Measured values as given in paper doi:10.1101/557751.

What was measured:
Assay in all cases: EMSA
[1] = biological target: T1, CsiR (Pseudomonas putida (KT2440?)) (UniProt Q88IU1)
T1 sequence: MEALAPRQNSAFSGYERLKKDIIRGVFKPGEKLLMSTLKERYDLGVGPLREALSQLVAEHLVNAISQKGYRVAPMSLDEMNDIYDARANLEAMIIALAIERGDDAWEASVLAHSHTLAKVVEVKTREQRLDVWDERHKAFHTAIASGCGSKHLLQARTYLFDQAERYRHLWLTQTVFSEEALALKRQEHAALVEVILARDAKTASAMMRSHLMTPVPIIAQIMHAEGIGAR

[2] = biological target: T2, GcdR (Pseudomonas putida (KT2440?)) (UniProt Q88RH3)
T2 sequence: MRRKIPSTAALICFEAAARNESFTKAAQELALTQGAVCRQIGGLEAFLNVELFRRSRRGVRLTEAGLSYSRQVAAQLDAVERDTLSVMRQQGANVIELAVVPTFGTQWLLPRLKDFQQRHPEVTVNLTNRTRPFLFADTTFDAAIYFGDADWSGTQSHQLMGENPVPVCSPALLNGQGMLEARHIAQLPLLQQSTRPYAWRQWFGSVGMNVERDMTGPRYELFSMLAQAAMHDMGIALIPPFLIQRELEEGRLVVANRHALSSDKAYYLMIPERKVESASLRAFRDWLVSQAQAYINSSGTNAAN

[3] = system: CsiR (Pseudomonas putida (KT2440?))
[4] = system: GcdR (Pseudomonas putida (KT2440?))

With “AGTTCGATCTGCGTAAAGGCGTTCATGGCAGTGTCCTGGCTAAAAAAGTAGATGGCGCCGTCCGGTCATGACCTGGATCAGTGCGGGCGAGGTAAAAATATCGCCACTAACTGAAAATGTCTACATTTTTATTTTTCAACGACACTACTCGTGTTTGTCCATTGTTTTTCGTCAGCAGAGGGTTTCGGTATGATCGGCAAAACGTTTTGAGGAACAGGATCTTGGAAGCGCTCGCCCCCCGACAAAACTCAGCATTCAGCGGG (double strand) [csiR-csiD intergenic probe]” the Kd [1] was 30 nM.

Work on “CGGGTCGATCCAGTTGAAACTTGCTTTACCGACCATGAGCGAATCCTCGAAATAGGGGTCAGTTTCTTGTGCCTTTGAGCCTAGGCCTGATCGGCTGCGGCGACAAACGAGGATTGCGCACCGATTAGTGATATTTTGTCACTCCGTAAATCGGCAAAACGCCTTATTGACAGCCTTACAAGTGAGGTTGACGTACATGC (double strand) [gcdR intergenic probe]” yielded a Kd [2] of 62.5 nM.

Substance csiR-csiD intergenic probe has a Kd [3] of 30 nM.

gcdR intergenic probe gave a Kd [4] of 62.5 nM.
